experiment: yeast display, Sf9 membrane polyspecificity reagent, FACS + sequencing; frameworks hold sequencing errors
In short: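 A synthetic nanobody library was expressed on Saccharomyces cerevisiae BJ5465 by galactose induction for 36–48 hours. The library was stained for 1 hour at 4 °C with 10% biotinylated, detergent-solubilized Sf9 membrane reagent and enriched with streptavidin microbeads before FACS. Low and high (top ~1%) gates were set on anti-HA fluorescence for expression and streptavidin fluorescence for reagent binding, and each polyreactivity label reflects the gate of origin.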

Sequence | polyreactivity (PSR sort gate)
QVQLVESGGGLVQAGGSLRLSCAASGRISRCYVMGRYRHAPGTERELVAAITWNSGSTYYADSVKGRFTISRDNAKNTVYLQMNSLTPEDTAVYYCAGVLYSRYQQYDYWGQGTQVTVSS | high polyreactivity
QVQLVESGGGLVQAGGSLRLSCAASGYIFRIYAMGWYRQAPGKERELVATITNGGSTHYADSVKGRFTISRDNAKNTVYLQMNSLKPEDTAVYYCAADLLYSEYDYWGQGTQVTVSS | high polyreactivity
QVHLVESGGGLVQEGGSLRISCAASGGTFHSNDMGWYRQAPGKESELVASINWSGGSTYYSDSVKGRFTISRDNAKNTVYLQMNRLKPEDNAVYYCAARESYPGYGYDHWGQGTQVTVSS | low polyreactivity
QVQLVESGGGLVQAGGSLRLSCAASGSTFRGYAMGWYRQAPGKERELVAAISWSGVSTYYADSVKGRFTISRDNAKNTVYLQMNSLKPEDTAVYYCAAGYSSAYLRFGYWGQGTQVTVSS | low polyreactivity
QVQLVESGGGLVQAGGSLRLSCAASGSTFGPNAMGWYRQAPGKERELVATITYSGGSTYYADSVKGRFTISRDNAKNTVYLQMNSLKPEDTAVYYCAAVYRYSRFTYGYWGQGTQVTVSS | high polyreactivity
QVQLVESGGGLVQAGGSLRLSCAASGSTFRPNAMGWYRPAPGKDRELVAAISWSGRSTYYADSVKGRFTISRDQAKTTVYLQMNSLTPQDTAVADCAKELYAGRTDTRTRYDYWGQGTQVTVSS | high polyreactivity
QVQLVESGGGLVQAGGSLRVSCAASGSIFYQYAMGWYRQAPGKERELVAAISTTGGRTYYADSVKGRFTISRDNAKNTVYLQMNSLKPEDTAVYYCAAYKYYGYDYWGQGTQVTVSS | high polyreactivity
QVQLVESGGGLVQAGGSLRLSCAASGSIFWSYDMGWYRQAPGKERELVATITSGDSTYYADSVKGRFTISRDNAKNTVYLQMNSLKPEDTAVYYCNVDVSVEVAYWGQGTQVTVSS | low polyreactivity
QVQLVESGGGLVQAGGSLRLSCAASGFTFYYNAMGWYRQAPGKERELVAVISSSGSRTYYADSVKGRFTISRYNAKNTVYLQMNSLKPEDTAVYYCAAARIGTRDYWGQGTQVSVSS | high polyreactivity
QVQLVESGGGLVHAGGSLRLSCAASGSIFVRNDMGWYRPAPGKERELVAVITRSAGGTYYADSVKGRFTISRDTAKNSVYFQMNSLKPEDTAFYYCAASPSTPNKYGSWGHGTQVTVSS | high polyreactivity
QVQLVESGGGLVQAGGSLRLSCAASGSTFIGNAMGWYRQAPGKERELVAAITSSGGSTYYADSVKGRFTISRDNAKNTVYLQLNSLKPEDTAVYYCAAKTWARGHYGYQARSNYWGQGTQVTVSS | high polyreactivity
QVQLVESGGGVVQAGGSLRLSCAASGRIFGYYAMGWYRQAPGTERELVAVISSGGSTYADSVKGRFTISRDNAKNPVYLQMNSLKPEDTAVYYCAARHYWSSYRTSRSRYDYWGQGTQVTVSS | high polyreactivity
QVQLVESGVGLLQAGGSLRISCAASGSIFFDNSMGRYRQAPGKERELVAAITWSGSRTYYADSVKGRFTISRDNAKNTVYLQMNSLKPEDTAVYYSNAVYWWYWALFTVGRYDYWGQGTQVTVSS | high polyreactivity
QVQLVESGGGLVQAGGSLRLSCAASGSTFTIYAMGWYRQAPGKERELVAAITFSGDRTYYADSVKGRFTISRDNAKNTVFLQMNSLKPEDTAVYYCAAKSSTKQRKYYWGQGTQVTVSS | high polyreactivity
QVQLVESAAGLVQAGGCLRLSCAASGRIFGYYAMGGYRKAPGKERELVAAITSGGGTYYADSVKGRFTNSRDNAKNTVYLQMNSLKPEDTAVYFCAADDYFHDDYCGQGTQVTVSS | high polyreactivity
QVQLVESGGGLVQAGGSLRISFAASGFTFNLYAMGWYRQAPGKERELVAAISWSGGRTYYADSVKGRFTISRDNAKNTVYLQMNSLKPEDTAVYYCNAPYWTSKSRFDYWGQGTQVTVSS | low polyreactivity
QVQLVESGGGLVQAGGSLRLSCAASGRIISRYAMGWYRQAPGKERELVAAISRRGGSTYYADSVKGRFTISRDNAKKTVYLQMNSLKPEDTAVYYCNADTGNRGYDYWGQGTQVTVSS | high polyreactivity
QVQLVESGGGLVQAGGSLRLSCAASGSTFSYYVMGWYRPAPGKERELVAAISGSGGSTYYADSVKGRFTISRDNAKNTVYLQMNSLKPEDTAVYYCDANDGSEYDYWGQGTQVTVSS | high polyreactivity
QVQLVESGGGLVQAGGSLRLSCAASGSILQYYAMGWYRQTPGKERELVAAITSGGSTYYADSVKGRFTISRDNAKNTVYLQMNSLKPEDTAVYYCAKVYRRAQYDYCGQGTQVTVSS | low polyreactivity
QVQLVESGGGLVQAGGSLRLSCAASGRTFSRNAMGWYRQAPGKERELVAAITKGGGSTYYADSVKGRFTISRDNAKNTVYLQMNSLKPEDTAVYYCAAYKPSTRRYDYWGQGTQVTVSS | high polyreactivity
QVQLVESGGGLVQAGGSLRLSCAASGRIFYINAMGWYRQAPGKERELVAAITGGDGSTTYADSVKGRFTISRDNAKNTVYLQMNSLKPEDTAVYYCNADTARKYAESQFDHWGQGTQVTVSS | low polyreactivity
QVQLVESGGGLVQAGGSLRLTCAASGFTFHVNTMGWYRQAPGKEMELVAAISWSGGSTYYADSVKGRFTISRDTAKKTVYLQMNSLNPEDTAVYYCNAVPVSYRGVYWGQGTQVTVSS | low polyreactivity

Sequence | polyreactivity (PSR sort gate)
QVQLVESGGGLVQAGGSLRLSCAASGRTFYVYAMGWYIQAPGKERELVAAISWGGGSTYYSDSVKGRFTISRDNAKNTVYLQMNSLKPEDTAVYFCAADKTRYRLGRDYWGQGTQVTVSS | low polyreactivity
QVQLVESGGGLVQAGGCLRLSCAASGFIFDSNAMGWYRQAPGKERELVAAISRRGGSTYYADSVKGRFTISRDNAKNTVYVHMNSLKPEYTSVYYCNAEYGSHVKYGYWGQGTQVTVSS | high polyreactivity
QVQLVESGGGLVQAGGRLRLSCAASGFTFNVNALGGYRPAPGKERELVATITWSDGSTRYADSVKGRFTISRDNAKNTVYLQMNSLKPEDTAVYYCATRWSYPYSYRYYYWGQGTQVTVSS | low polyreactivity
QVQLVESGGGLVQAGGSLRLSSAASGRTFSYNTMGWYSQAPGQERELVARITWGGGSTNYAVSVKGRFTISRDNAKNTVYLQMNSLKPEDTAVYYCAAGPSVPYGPQKVDYWGQGTLVTVSS | low polyreactivity
QVQLVESGGGLVQAGGSLRLSCAASGSTFWWYAMGWYRQAPGKERELVATIRDGGSTNYADSVKGRFTISRDNAKNTVYLQMNSLKPEDTAVYYCNADVYPYYRKPWMDYWGQGTQVTVSS | low polyreactivity
QVQLVESGGGLVQAGGSLRLSCAASGSIFNSYAMGWYRQAPGKERELVAAISSGGGRTYYADSVKGRFTISRDNAKNTVYLQMNSLKPEDTAVYYCNARAVYRFDYWGQGTQVTVSS | high polyreactivity
QVQLVESGGGLVQAGGSLRLSCAASGSIFRRNAMGWYRQAPGKERELVAAIRSGGGTNYADSVKGRFTISRDNAKNTVYLQMNSLKPEDTAVYYCAAVYERYYLFEYDYWGQGTQVTVSS | low polyreactivity
QVQLVESGGGLVQAGGSLRLSCAASGRIFKNNTMGWYRQAPGKERELVAAISCSGGSTYYADSVKGRFTISRDNAKNTVYLQINSLKPEDTAVYYCATTYEPNGGIEDDYWGQGTQVTVSS | low polyreactivity
QVQHVESGGGLVQAGGSLRLSCAASGRIFQHYPMGSYRQAPGKETEFVAAISSSSGSTYADSVKGRFTISRDNAKNTVYLQMNSLNPEDTAVYYCNRDYMPFKFYGGSHDMEYWGQGTQVTVSS | low polyreactivity
QVQLVESGGGLVQAGGSLRLSCAASGSTFFYYAMGWYRQAPGKERELVAAISRNGGSTYYADSVKGRFTISRDNAKNTVYLQMNSLKPEDTAVYYCNAYNLAGRYFDYWGQGTQVTVSS | high polyreactivity
QVQLVESGGGLVQAGGSLRLSCAASGLIFATYAMGWYRQAPGKERELVAAISIRGGITYYADSVKGRFTISRDNAKNTVYLQMNSLKPEDTAVYYCAARYSRAGISHRMDYWGQGTQVTVSS | high polyreactivity
QVQLVESGGGLVQAGGSLRISWAASGFTFYTYMGWYRQAPGKERELVAAISWSGDSTYYADSVKGRFTISRDNAKNTVYLQMNSLKPEDTAVYYCIADHGGSRYDYWGQGTQVTVSS | low polyreactivity
QVQLVESGGGLVQAGGSLRLSCAASGRIYLYAMGWYRQTPGKERELVAAISYSGGSTYYADSVKGRFTISRDYAKNTVYLQMNCLKPEDTAVYYWASEAGSYWGKGTQVTVSS | high polyreactivity
QVQLVESGGGLVQAGGSLRLRCSASGSTIKDYTMGLYRQAPGKERELVAAITDSGGSTYYADSVKGRFTISRDNAKNTVYLQMNSLTPEDTAVYFCAAAVPELYEVRYHDDYWGQGTQVTVSS | low polyreactivity
QVQLVESGGGLVQAGGSLRLSCAASGRTLSRYTMGWYRQAPGKERELVAAISTSGSTYYADSVKGRFTISRDNAKNTVYLQMNSLKPEDTAVYYCNAVRRYLQYATGYDYWGQGTQVTVSS | high polyreactivity
QVQLVESGGGLVQAGGSLRLSCAASGFILYSYAMGWYRQAPGKERELVADITGTGGRTYYADSVKGRFTISRDNAKNTVYLQMNSLKPEDTAVYYCNKGPFFVFRTTRYYEYDYWGQGTQVTVSS | low polyreactivity
QVQLVESGGGLVQAGGSLRLSCAASGRTSGYYAMGWYRQAPGKERELVATISGNVGRTYYADSVKGRFTISRDNAKNTVYLQMNSLKPEDTAVYYCAARTYGPYDYWGQGTQVTVSS | low polyreactivity
QVQLVESGGGLVQAGGSLRLSCAASGLTIWYYAMGWSRQAPGKEREFVAAITSRGGDTYYADSVKGRFTISRDNAKNTVYLQMNSLKPEDTAVYYCAVRPRYYGTYRYYYWGQGTQVTVSS | high polyreactivity
QVQLVESGGGLVQAGGSLRLSCAACGRTFVDYVMGSYRQAPGKERELVAAISRSGSTYYADSVKGRFTISRDNAKNTVYLQRNSLKPEDTAVYYCAASSVALPWYASWYVYGYEYCGQGTQVTVSS | low polyreactivity
QVHLVESGGGLVHAGGSLRLSSAASGFIFRYYAMGWYRQAPGKERELVAAITSLGGRTYYADSVNGRFTISRDYAKNTVYLQMNSLKPEDTAVFYCAKSTRGTYDMGFWGQVTQVTVSS | high polyreactivity
QVQLVESGGGLVQAGGSLRLSCAASGRTFGLYAMGWYRQAPGKERELVAAISSGVSTNYADSVKGRFTISRDNAKNTVYLQMNSLKPEDTAVYYCAAKNYYPRVNYWGQGTQVTVSS | high polyreactivity

— the nanobody polyreactivity screen of Harvey et al. (2022)
